Test results: article PMC4499159, “Quantitative characterization of protein–protein complexes involved in base excision DNA repair”

Tests used:
[1] = target: T1, DNA polymerase beta (Polβ) (rat, UniProt P06766 1-335); test: fluorescence titration; FAM-Polβ; n 1.3; 50 mM HEPES pH 8.0, 100 mM NaCl, 4 mM DTT (+10 mM EDTA for APE1); labelled protein from 20 nM; temperature not stated
AP endonuclease 1 (APE1) = AP endonuclease 1 (APE1) (human, UniProt P27695 1-318); test: fluorescence titration; TAF-APE1; 10 mM EDTA; n 1.15; 50 mM HEPES pH 8.0, 100 mM NaCl, 4 mM DTT (+10 mM EDTA for APE1); labelled protein from 20 nM; temperature not stated; conditions: protein: recombinant; tags: TAF- or FAM-labelled (terminal amino group primarily); blunt outer ends, 1-nt gap; upstream 15-mer + downstream 16-mer on 32-mer template
XRCC1 = XRCC1 (human, UniProt P18887 1-633); test: fluorescence titration; TAF-XRCC1; n 0.90; 50 mM HEPES pH 8.0, 100 mM NaCl, 4 mM DTT (+10 mM EDTA for APE1); labelled protein from 20 nM; temperature not stated; conditions: protein: recombinant; tags: TAF-labelled; blunt outer ends, 1-nt gap; upstream 15-mer + downstream 16-mer on 32-mer template
[2] = target: T1, DNA polymerase beta (Polβ); test: fluorescence titration; TAF-Polβ; n 0.94; 50 mM HEPES pH 8.0, 100 mM NaCl, 4 mM DTT (+10 mM EDTA for APE1); labelled protein from 20 nM; temperature not stated

B1: gap-DNA (dsDNA)
DNA 1: GGCGATTAAGTTGGG
DNA 2: AACGTCAGGGTCTTCC
DNA 3: GGAAGACCCTGACGTTACCCAACTTAATCGCC
modifications: 5'-phosphate on downstream primer
**Q.** For B1, which “apparent K (half saturation)” value [1] is on record?
**A.** 23 nM

**Q.** What about the “apparent K (half saturation)” value (AP endonuclease 1 (APE1)) of the same binder?
**A.** 25 ± 3 nM

**Q.** What about the “apparent K (half saturation)” value (XRCC1) of the same binder?
**A.** 25 ± 4 nM

**Q.** And the “apparent K (half saturation)” value [2]?
**A.** 30 nM
